From patent publication US20160287687A1 (IMMATICS BIOTECHNOLOGIES, published 2016)

B1: YVLTQPPSV (SEQ ID NO: 68) (peptide)
peptide: YVLTQPPSV
notes: source genes IGLV3-21, IGLV2-14, IGLJ3, IGLC1, IGLC2

Target: T1, HLA-A*02:01 (human)
T1 construct: MHC monomers first loaded with a UV-sensitive peptide (not identified) that is cleaved by UV light and exchanged for the test peptide; captured on streptavidin plates, detected with anti-β2m; also called peptide-receptive MHC molecules; MHC class I
Test: UV-ligand exchange + anti-b2m ELISA; peptide exchange yield grade (+ >=10%, ++ >=20%, +++ >=50, ++++ >=75%)
Excerpt: Candidate peptides for T cell based therapies according to the present invention were further tested for their MHC binding capacity (affinity). The individual peptide-MHC complexes were produced by UV-ligand exchange, where a UV-sensitive peptide is cleaved upon UV-irradiation, and exchanged with the peptide of interest as analyzed. Only peptide candidates that can effectively bind and stabilize the peptide-receptive MHC molecules prevent dissociation of the MHC complexes. To determine the yield of the exchange reaction, an ELISA was performed based on the detection of the light chain (β2m) of stabilized MHC complexes. The assay was performed as generally described in Rodenko et al. (Rodenko et al., 2006).
96 well MAXISorp plates (NUNC) were coated over night with 2 ug/ml streptavidin in PBS at room temperature, washed 4× and blocked for 1h at 37° C. in 2% BSA containing blocking buffer. Refolded HLA-A*02:01/MLA-001 monomers served as standards, covering the range of 15-500 ng/ml. Peptide-MHC monomers of the UV-exchange reaction were diluted 100 fold in blocking buffer. Samples were incubated for 1 h at 37° C., washed four times, incubated with 2 ug/ml HRP conjugated anti-β2m for 1h at 37° C., washed again and detected with TMB solution that is stopped with […]. Absorption was measured at 450 nm. Candidate peptides that show a high exchange yield (preferably higher than 50%, most preferred higher than 75%) are generally preferred for a generation and production of antibodies or fragments thereof, and/or T cell receptors or fragments thereof, as they show sufficient avidity to the MHC molecules and prevent dissociation of the MHC complexes.

Q: GLAPHLEQI (source gene IPO4) [GLAPHLEQI (SEQ ID NO: 99)] was tested. Which peptide exchange yield did it give?
A: 20 to 50%

Q: GLLQGKLALL (source gene NQO2) [GLLQGKLALL (SEQ ID NO: 86)] was tested. Which peptide exchange yield did it give?
A: 20 to 50%

Q: Which peptide exchange yield does the source give for ALADIVWRA (source gene FAM188B) [ALADIVWRA (SEQ ID NO: 79)] here?
A: 50 to 75%

Q: For FLIKSINLV (source gene KBTBD3) [FLIKSINLV (SEQ ID NO: 75)], which peptide exchange yield is on record?
A: 50 to 75%

Q: KLASMLETL (source gene PRKCDBP) [KLASMLETL (SEQ ID NO: 80)] was tested. Which peptide exchange yield did it give?
A: 50 to 75%

Q: Which peptide exchange yield does the source give for TLAELHISL (source gene NLRC5) [TLAELHISL (SEQ ID NO: 88)] here?
A: 20 to 50%

Q: VLFELSKTV (source gene ATP11A) [VLFELSKTV (SEQ ID NO: 6)] was tested. Which peptide exchange yield did it give?
A: 50 to 75%

Q: Which peptide exchange yield does the source give for ILLQKPDSV (source gene RGS5) [ILLQKPDSV (SEQ ID NO: 9)] here?
A: 20 to 50%

Q: MLLSSLVSL (source gene VKORC1) [MLLSSLVSL (SEQ ID NO: 91)] was tested. Which peptide exchange yield did it give?
A: 20 to 50%

Q: How did the peptide exchange yield turn out when SLLQATDFMSL (source gene THY1) [SLLQATDFMSL (SEQ ID NO: 82)] was run?
A: 50 to 75%

Q: For FVMSEIRTV (source gene ZNF618) [FVMSEIRTV (SEQ ID NO: 85)], which peptide exchange yield is on record?
A: 50 to 75%

Q: How did the peptide exchange yield turn out when ALDGHLYAV (source gene KBTBD11) [ALDGHLYAV (SEQ ID NO: 71)] was run?
A: 50 to 75%

Q: Which peptide exchange yield does the source give for TLAETLVNL (source gene ANKRD52) [TLAETLVNL (SEQ ID NO: 96)] here?
A: 50 to 75%

Q: How did the peptide exchange yield turn out when VLAGPAFLVQL (source gene SLC47A1) [VLAGPAFLVQL (SEQ ID NO: 62)] was run?
A: 50 to 75%

Q: Which peptide exchange yield does the source give for SLMGILLRI (source gene CARD8) [SLMGILLRI (SEQ ID NO: 61)] here?
A: 20 to 50%

Q: Which peptide exchange yield does the source give for LLFDVHTTL (source gene C5orf42) [LLFDVHTTL (SEQ ID NO: 102)] here?
A: 50 to 75%

Q: GVMAGDIYSV (source gene PLIN2) [GVMAGDIYSV (SEQ ID NO: 93)] was tested. Which peptide exchange yield did it give?
A: ≥ 75%

Q: With TLLKTIIKV (source gene CC2D2A) [TLLKTIIKV (SEQ ID NO: 66)] as the binder, how does the peptide exchange yield read?
A: 20 to 50%

Q: How did the peptide exchange yield turn out when GLASFKSFL (source gene RGS5) [GLASFKSFL (SEQ ID NO: 8)] was run?
A: 20 to 50%

Q: How did the peptide exchange yield turn out when KLNVAPLAV (source genes MZT2A, MZT2B) [KLNVAPLAV (SEQ ID NO: 100)] was run?
A: 20 to 50%

Q: ILHHKVYDL (source gene CYB5A) [ILHHKVYDL (SEQ ID NO: 94)] was tested. Which peptide exchange yield did it give?
A: 20 to 50%

Q: How did the peptide exchange yield turn out when IIYGGSVTGA (source genes TPI1, TPI1P1) [IIYGGSVTGA (SEQ ID NO: 65)] was run?
A: 20 to 50%

Q: How did the peptide exchange yield turn out when IQWSIVPEV (source gene GRAMD4) [IQWSIVPEV (SEQ ID NO: 83)] was run?
A: 50 to 75%

Q: With FLFRDILEL (source gene DROSHA) [FLFRDILEL (SEQ ID NO: 92)] as the binder, how does the peptide exchange yield read?
A: 50 to 75%

Q: How did the peptide exchange yield turn out when SLLPALPKL (source gene LRP2) [SLLPALPKL (SEQ ID NO: 81)] was run?
A: 20 to 50%

Q: How did the peptide exchange yield turn out when TLISELVQA (source gene CUL7) [TLISELVQA (SEQ ID NO: 97)] was run?
A: 20 to 50%

Q: Which peptide exchange yield does the source give for KLTDVGIATL (source gene ALPK2) [KLTDVGIATL (SEQ ID NO: 95)] here?
A: 20 to 50%

Q: HIYDKAFITV (source gene FLT1) [HIYDKAFITV (SEQ ID NO: 101)] was tested. Which peptide exchange yield did it give?
A: 20 to 50%

Q: For GLIEDHFDVTV (source gene ERAP1) [GLIEDHFDVTV (SEQ ID NO: 63)], which peptide exchange yield is on record?
A: 20 to 50%

Q: With FTLEKNFVI (source gene COL6A2) [FTLEKNFVI (SEQ ID NO: 90)] as the binder, how does the peptide exchange yield read?
A: 20 to 50%

Q: YLMDEGAHL (source gene UGDH) [YLMDEGAHL (SEQ ID NO: 84)] was tested. Which peptide exchange yield did it give?
A: 20 to 50%

Q: Which peptide exchange yield does the source give for VLADDHLIEV (source genes PDZK1P2, PDZK1, PDZK1P1) [VLADDHLIEV (SEQ ID NO: 76)] here?
A: 20 to 50%

Q: Which peptide exchange yield does the source give for SLIKHKIML (source gene ATP6V1A) [SLIKHKIML (SEQ ID NO: 77)] here?
A: 20 to 50%

Q: KIPPVSPSI (source gene ARRDC3) [KIPPVSPSI (SEQ ID NO: 98)] was tested. Which peptide exchange yield did it give?
A: 20 to 50%

Q: For LLAASVALA (source gene NPTX2) [LLAASVALA (SEQ ID NO: 64)], which peptide exchange yield is on record?
A: 20 to 50%

Q: With FLLSLIDRL (source gene EGLN3) [FLLSLIDRL (SEQ ID NO: 7)] as the binder, how does the peptide exchange yield read?
A: 50 to 75%

Q: With GLDGIPFTV (source gene TRIP6) [GLDGIPFTV (SEQ ID NO: 73)] as the binder, how does the peptide exchange yield read?
A: 50 to 75%

Q: How did the peptide exchange yield turn out when YSLEKVFGI (source gene MAGED2) [YSLEKVFGI (SEQ ID NO: 72)] was run?
A: 20 to 50%

Q: Which peptide exchange yield does the source give for B1 here?
A: 20 to 50%

Q: Which peptide exchange yield does the source give for ILADLLPSL (source gene DHRS7B) [ILADLLPSL (SEQ ID NO: 69)] here?
A: 20 to 50%

Q: For SLLLAVTEV (source gene JAG2) [SLLLAVTEV (SEQ ID NO: 89)], which peptide exchange yield is on record?
A: 20 to 50%

Q: How did the peptide exchange yield turn out when LLDVLAPLV (source gene COL18A1) [LLDVLAPLV (SEQ ID NO: 67)] was run?
A: 20 to 50%

Q: For GLFHKQVTV (source gene PDZD2) [GLFHKQVTV (SEQ ID NO: 74)], which peptide exchange yield is on record?
A: 50 to 75%

Q: ALLDTVVQA (source genes CACNA1I, CACNA1H) [ALLDTVVQA (SEQ ID NO: 78)] was tested. Which peptide exchange yield did it give?
A: 20 to 50%
